Test results from article PMC2063705 (The Journal of Cell Biology, 2006).
Changes are numbered by the printed parent chain. Names may count otherwise.

B1: wild-type p150^Glued NH2-terminal residues 1–333 (domain or fragment, human, UniProt Q14203-1 1-333, looked up)
chain: MAQSKRHVYSRTPSGSRMSAEASARPLRVGSRVEVIGKGHRGTVAYVGATLFATGKWVGVILDEAKGKNDGTVQGRKYFTCDEGHGIFVRQSQIQVFEDGADTTSPETPDSSASKVLKREGTDTTAKTSKLRGLKPKKAPTARKTTTRRPKPTRPASTGVAGASSSLGPSGSASAGELSSSEPSTPAQTPLAAPIIPTPVLTSPGAVPPLPSPSKEEEGLRAQVRDLEEKLETLRLKRAEDKAKLKELEKHKIQLEQVQEWKSKMQEQQADLQRRLKEARKEAKEALEAKERYMEEMADTADAIEMATLDKEMAEERAESLQQEVEALKERVD
modifications: [35S]methionine label (microtubule binding assay)
B2: G59S p150^Glued NH2-terminal residues 1–333 (domain or fragment, human, UniProt Q14203-1 1-333, looked up)
chain: B1 chain with G59S
modifications: [35S]methionine label (microtubule binding assay)

Target: microtubules polymerized from purified tubulin, stabilized with paclitaxel (UniProt Q6B856 1-445)
Assay: co-sedimentation

| Binder | Kd [µM] |
| --- | --- |
| B1 | 1.1 ± 0.2 |
| B2 | 2.6 ± 0.5 |
